Experimental data reported in patent publication US20230190867A1 (BIOINCEPT, published 2023).
No end group written: not given here.

What was measured:
[1] = target: T1, Elongation factor 1-alpha 1 (human, UniProt P68104 2-462); experiment: PIF-agarose affinity extraction, liver lysate column of Table 4 (row 'Eef1a1')
T1 construct: also called Eef1a1
T1 sequence (looked up): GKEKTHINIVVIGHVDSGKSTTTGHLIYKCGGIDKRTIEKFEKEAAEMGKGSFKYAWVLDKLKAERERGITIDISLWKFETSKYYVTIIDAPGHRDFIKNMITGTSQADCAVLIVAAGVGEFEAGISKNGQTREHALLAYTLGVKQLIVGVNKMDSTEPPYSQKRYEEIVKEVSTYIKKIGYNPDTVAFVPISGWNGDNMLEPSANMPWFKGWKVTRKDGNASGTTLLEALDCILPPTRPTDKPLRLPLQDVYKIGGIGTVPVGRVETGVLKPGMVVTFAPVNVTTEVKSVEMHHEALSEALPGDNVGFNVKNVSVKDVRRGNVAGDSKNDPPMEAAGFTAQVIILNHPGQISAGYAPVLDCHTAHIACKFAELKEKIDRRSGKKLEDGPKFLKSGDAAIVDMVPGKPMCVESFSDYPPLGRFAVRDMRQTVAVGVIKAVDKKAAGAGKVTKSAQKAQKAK

[2] = target: Eukaryotic initiation factor 4A-I (human, UniProt P60842 2-406); experiment: PIF-agarose affinity extraction, liver lysate column of Table 4
14-3-3 protein theta = target: T2, 14-3-3 protein theta (human, UniProt P27348 1-245); experiment: as above
T2 sequence (looked up): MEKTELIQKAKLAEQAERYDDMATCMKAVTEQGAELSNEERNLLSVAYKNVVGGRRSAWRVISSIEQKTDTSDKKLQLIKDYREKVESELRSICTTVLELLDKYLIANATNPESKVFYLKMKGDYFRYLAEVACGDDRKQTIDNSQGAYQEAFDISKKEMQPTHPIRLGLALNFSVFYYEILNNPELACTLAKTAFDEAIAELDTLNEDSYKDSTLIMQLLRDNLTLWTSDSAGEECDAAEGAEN

[3] = target: Isoform 2 of Heat shock protein HSP 90-alpha (human, UniProt P07900-2 1-854, limits assumed); experiment: as above
[4] = target: Isoform 2 of Tropomyosin alpha-3 chain (human, UniProt P06753-2 2-248); experiment: as above
Isoform C of Lamin-A/C = target: T3, Isoform C of Lamin-A/C (human, UniProt P02545-2 1-572); experiment: as above
T3 sequence (looked up): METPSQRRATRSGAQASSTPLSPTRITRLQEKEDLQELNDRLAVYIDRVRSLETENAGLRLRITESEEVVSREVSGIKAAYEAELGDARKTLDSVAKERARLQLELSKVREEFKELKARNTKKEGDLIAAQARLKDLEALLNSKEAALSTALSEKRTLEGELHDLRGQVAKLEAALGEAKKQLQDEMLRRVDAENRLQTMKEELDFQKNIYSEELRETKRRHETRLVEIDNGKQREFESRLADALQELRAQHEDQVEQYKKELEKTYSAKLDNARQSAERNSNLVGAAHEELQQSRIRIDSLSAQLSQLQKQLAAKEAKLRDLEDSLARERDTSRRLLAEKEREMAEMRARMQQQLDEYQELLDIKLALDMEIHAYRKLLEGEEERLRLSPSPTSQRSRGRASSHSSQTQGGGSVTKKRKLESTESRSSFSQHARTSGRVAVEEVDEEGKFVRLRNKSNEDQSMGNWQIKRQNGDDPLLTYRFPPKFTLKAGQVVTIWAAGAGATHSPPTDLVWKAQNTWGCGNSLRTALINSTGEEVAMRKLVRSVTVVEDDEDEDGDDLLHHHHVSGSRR

[5] = target: T4, Serine/arginine-rich-splicing factor 2 (human, UniProt Q01130 2-221); experiment: as above
T4 sequence (looked up): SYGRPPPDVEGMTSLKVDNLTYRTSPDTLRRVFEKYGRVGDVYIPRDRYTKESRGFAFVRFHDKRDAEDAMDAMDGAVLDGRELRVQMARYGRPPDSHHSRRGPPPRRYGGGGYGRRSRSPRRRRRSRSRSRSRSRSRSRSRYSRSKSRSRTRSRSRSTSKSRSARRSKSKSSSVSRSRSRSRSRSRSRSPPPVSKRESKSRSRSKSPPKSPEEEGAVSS

Thioredoxin = target: T5, Thioredoxin (human, UniProt P10599 2-105); experiment: as above
T5 sequence (looked up): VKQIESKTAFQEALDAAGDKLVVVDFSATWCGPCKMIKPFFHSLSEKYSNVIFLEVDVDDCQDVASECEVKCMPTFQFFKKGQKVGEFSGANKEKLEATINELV

[6] = target: Actin, alpha skeletal muscle (human, UniProt P68133 3-377); experiment: as above
Nucleolin = Nucleolin (human, UniProt P19338 2-710); experiment: as above
Alpha-actinin-1 = Alpha-actinin-1 (human, UniProt P12814 1-892); experiment: as above
Isoform 2 of Protein SET = Isoform 2 of Protein SET (human, UniProt Q01105-2 2-277); experiment: as above
[7] = target: T6, 14-3-3 protein zeta/delta (human, UniProt P63104 1-245); experiment: as above
T6 sequence (looked up): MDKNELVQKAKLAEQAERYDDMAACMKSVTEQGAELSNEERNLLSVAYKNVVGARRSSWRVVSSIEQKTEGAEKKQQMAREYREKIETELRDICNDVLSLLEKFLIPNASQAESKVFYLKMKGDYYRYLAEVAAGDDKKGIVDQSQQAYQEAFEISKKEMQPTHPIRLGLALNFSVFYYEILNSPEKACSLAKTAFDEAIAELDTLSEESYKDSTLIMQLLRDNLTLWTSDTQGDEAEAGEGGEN

[8] = target: Isoform 2 of Tropomyosin beta chain (human, UniProt P07951-2 1-284); experiment: as above
PRDX4 = target: T7, PRDX4 (human, UniProt Q13162 38-271); experiment: as above
T7 sequence (looked up): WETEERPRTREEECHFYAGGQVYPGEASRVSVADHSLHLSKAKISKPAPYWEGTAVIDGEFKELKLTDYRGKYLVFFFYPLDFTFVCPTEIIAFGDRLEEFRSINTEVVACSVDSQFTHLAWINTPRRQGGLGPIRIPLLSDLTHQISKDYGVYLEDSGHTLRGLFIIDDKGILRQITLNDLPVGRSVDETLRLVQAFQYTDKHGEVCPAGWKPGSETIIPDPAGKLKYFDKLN

Annexin A2 = Annexin A2 (human, UniProt P07355 2-339); experiment: as above
14-3-3 protein eta = target: T8, 14-3-3 protein eta (human, UniProt Q04917 2-246); experiment: as above
T8 sequence (looked up): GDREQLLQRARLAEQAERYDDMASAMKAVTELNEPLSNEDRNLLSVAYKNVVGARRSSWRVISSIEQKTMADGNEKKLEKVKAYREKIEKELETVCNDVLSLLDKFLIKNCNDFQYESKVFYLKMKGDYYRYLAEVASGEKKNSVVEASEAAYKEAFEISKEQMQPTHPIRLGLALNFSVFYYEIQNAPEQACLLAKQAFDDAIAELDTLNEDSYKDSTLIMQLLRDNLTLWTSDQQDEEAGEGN

14-3-3 protein gamma = target: T9, 14-3-3 protein gamma (human, UniProt P61981 1-247); experiment: as above
T9 sequence (looked up): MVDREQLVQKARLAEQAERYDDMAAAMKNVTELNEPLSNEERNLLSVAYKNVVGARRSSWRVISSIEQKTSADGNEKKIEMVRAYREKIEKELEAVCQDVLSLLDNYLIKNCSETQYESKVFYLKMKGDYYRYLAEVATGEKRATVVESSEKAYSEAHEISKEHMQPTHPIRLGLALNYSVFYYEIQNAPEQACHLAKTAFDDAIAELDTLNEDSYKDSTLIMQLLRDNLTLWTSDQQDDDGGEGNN

[9] = target: Acidic leucine-rich nuclear phosphoprotein 32 family Member A (human, UniProt P39687 1-249); experiment: as above
[10] = target: T10, 14-3-3 protein beta/alpha (human, UniProt P31946 1-246); experiment: as above
T10 sequence (looked up): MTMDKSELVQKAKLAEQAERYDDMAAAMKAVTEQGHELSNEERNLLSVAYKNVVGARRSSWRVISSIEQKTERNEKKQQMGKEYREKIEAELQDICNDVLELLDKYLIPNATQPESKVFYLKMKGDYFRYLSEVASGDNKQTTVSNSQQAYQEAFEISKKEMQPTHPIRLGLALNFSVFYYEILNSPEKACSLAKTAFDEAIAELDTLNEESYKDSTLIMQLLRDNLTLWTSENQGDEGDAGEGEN

[11] = target: 40S ribosomal protein S3a (human, UniProt P61247 2-264); experiment: as above
[12] = target: Serine/arginine-rich-splicing factor 1 (human, UniProt Q07955 2-248); experiment: as above
[13] = target: ATP synthase subunit beta, mitochondrial (human, UniProt P06576 48-529); experiment: as above
[14] = target: Isoform 2 of Tropomyosin alpha-4 chain (human, UniProt P67936-2 1-284); experiment: as above
Cofilin-1 = Cofilin-1 (human, UniProt P23528 2-166); experiment: as above
Cytochrome P450 26A1 = target: T11, Cytochrome P450 26A1 (human, UniProt O43174 1-497); experiment: as above
T11 sequence (looked up): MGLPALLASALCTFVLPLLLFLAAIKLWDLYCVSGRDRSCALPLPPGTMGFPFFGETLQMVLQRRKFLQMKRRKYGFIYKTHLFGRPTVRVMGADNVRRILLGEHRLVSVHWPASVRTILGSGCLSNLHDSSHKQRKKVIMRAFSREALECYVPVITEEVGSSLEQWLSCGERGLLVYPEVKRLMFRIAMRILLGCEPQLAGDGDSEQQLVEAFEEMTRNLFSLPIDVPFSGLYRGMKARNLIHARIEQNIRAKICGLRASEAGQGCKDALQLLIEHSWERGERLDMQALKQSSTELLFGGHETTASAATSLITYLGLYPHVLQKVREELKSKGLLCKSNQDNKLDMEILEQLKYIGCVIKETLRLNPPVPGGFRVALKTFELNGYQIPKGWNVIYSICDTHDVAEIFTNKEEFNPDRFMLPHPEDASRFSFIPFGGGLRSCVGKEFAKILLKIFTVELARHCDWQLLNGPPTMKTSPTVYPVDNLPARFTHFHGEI

[15] = target: T12, D-3-phosphoglycerate dehydrogenase (human, UniProt O43175 2-533); experiment: as above
T12 sequence (looked up): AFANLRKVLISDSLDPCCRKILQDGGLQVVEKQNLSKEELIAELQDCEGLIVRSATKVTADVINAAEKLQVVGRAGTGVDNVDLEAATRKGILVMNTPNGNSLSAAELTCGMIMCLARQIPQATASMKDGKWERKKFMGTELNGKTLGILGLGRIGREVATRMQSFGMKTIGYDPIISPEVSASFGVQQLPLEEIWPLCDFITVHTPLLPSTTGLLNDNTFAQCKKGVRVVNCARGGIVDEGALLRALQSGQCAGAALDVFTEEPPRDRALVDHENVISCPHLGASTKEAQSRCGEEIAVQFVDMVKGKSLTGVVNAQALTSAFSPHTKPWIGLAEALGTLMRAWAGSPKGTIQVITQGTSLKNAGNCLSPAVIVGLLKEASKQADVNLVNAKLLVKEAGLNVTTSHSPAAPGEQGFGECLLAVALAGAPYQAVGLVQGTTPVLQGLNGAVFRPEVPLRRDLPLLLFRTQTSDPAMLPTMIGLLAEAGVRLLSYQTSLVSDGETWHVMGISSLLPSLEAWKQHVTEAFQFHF

Measured: binding result

B1: sPIF-1(15) (peptide)
peptide: MVRIKPGSANKPSDD
modifications: also: coupled to agarose support
notes: also called synthetic preimplantation factor
binds: all assays above
